{"source": "paper PMC9681084", "about": "“MYB44-ENAP1/2 restricts HDT4 to regulate drought tolerance in Arabidopsis” (PLOS Genetics, 2022)", "target": "T1, GST-MYB44 (Arabidopsis, UniProt Q9FDW1 1-305)", "T1 construct": "MYB44, Arabidopsis; the CDS ligated to pGEX-KG; source: E. coli, purified (Glutathione Sepharose resin)", "T1 sequence (Q9FDW1 whole entry)": "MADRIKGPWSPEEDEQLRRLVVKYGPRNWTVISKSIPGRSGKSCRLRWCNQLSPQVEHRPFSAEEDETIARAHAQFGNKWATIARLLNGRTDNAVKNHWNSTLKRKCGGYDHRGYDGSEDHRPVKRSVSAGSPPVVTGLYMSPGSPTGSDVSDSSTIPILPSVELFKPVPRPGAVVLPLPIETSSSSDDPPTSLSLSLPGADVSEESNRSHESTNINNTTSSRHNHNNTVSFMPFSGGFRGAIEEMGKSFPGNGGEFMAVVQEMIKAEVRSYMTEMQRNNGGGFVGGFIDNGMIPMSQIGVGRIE", "experiment": "pull-down; GST-MYB44 as bait, GST as control; purified proteins from E. coli incubated overnight at 4°C, washed four times, western blot", "conditions": "both partners purified"}
{"binder": "His-HDT4 (enzyme, Arabidopsis, UniProt Q9M4T3 1-203, looked up, HDT4, histone deacetylase of the HD2 family, Arabidopsis; the CDS ligated to pET28a; source: E. coli, purified (Ni-NTA agarose resin)) MEFWGIEIKPGKPFKVIQKDGFMVHASQVTLGDVEKVKKDETFAVYVKIGDDENGFMIGNLSQKFPQFSIDLYLGHEFEISHNSTSSVYLIGYRTFDAFDELDEEIDSDSELDEYMEQQIAALPQNEINPEEDDESDSDEMGLDEDDDSSDEEDVEAEAPLKVAPPSKKMPNGAFEIAKGGKKNKSSGGKKRCPFPCGPSCKK", "values": [{"measurement": "binding result", "value": "binds"}]}
{"binder": "MBP-ENAP1 (natural protein, Arabidopsis, UniProt Q8VZI9 1-249, looked up, ENAP1, Arabidopsis, AT3G11100; the CDS ligated to pVP13 (His tag removed); source: E. coli, purified (Amylose resin)) METTPETQSKTHRLPAGREDWWSEDATATLIEAWGDRYVNLNRGNLRQNDWKEVADAVNSSHGNGRPKTDVQCKNRIDTLKKKYKTEKAKPLSNWCFFDRLDFLIGPVMKKSSGAVVKSALMNPNLNPTGSKSTGSSLDDDDDDDDDDEEDDDDAGDWGFVVRKHRKVEDVDSSEGSAFRELARSILKLGEAFERIEGKKQQMMIELEKQRMEVAKELELQRMNMLMEMQLELEKSKLGKRRAASGKKL", "values": [{"measurement": "binding result", "value": "binds"}]}
